Data from patent publication US11306156.

Legend:
[1] = biological target: D3H44 light chain Q38E_Q124E_Q160E_T180E; test: LCCA, SPR tag readout, L1:L2 DNA 1:9 normalized to 1:1; competitor m21
[2] = biological target: D3H44 light chain Q38R_S131K; test: LCCA, SPR tag readout, L1:L2 DNA 1:3 normalized to 1:1; competitor m19
[3] = biological target: D3H44 light chain Q38R_S131K; test: LCCA, SPR tag readout, L1:L2 DNA 1:9 normalized to 1:1; competitor m19
[4] = biological target: D3H44 light chain Q38E_Q124E_Q160E_T180E; test: LCCA, SPR tag readout, L1:L2 DNA 1:3 normalized to 1:1; competitor m21
[5] = biological target: tissue factor (TF) antigen (UniProt P13726); test: SPR, Fab captured on anti-penta-His, TF as analyte, 1:1 fit; estimated (*) from Fab differing only in L chain tag
[6] = biological target: tissue factor (TF) antigen (UniProt P13726); test: vs wild-type D3H44 Fab (estimated wt KD […]); SPR; estimated (*) from Fab differing only in L chain tag
[7] = biological target: D3H44 light chain Q124E_Q160E_T180E_C214S; test: LCCA, SPR tag readout, L1:L2 DNA 1:9 normalized to 1:1; competitor m20
[8] = biological target: D3H44 light chain Q124E_Q160E_T180E_C214S; test: LCCA, SPR tag readout, L1:L2 DNA 1:3 normalized to 1:1; competitor m20
[9] = biological target: D3H44 light chain P44F_S131K; test: LCCA, SPR tag readout, L1:L2 DNA 1:9 normalized to 1:1; competitor m22
[10] = biological target: D3H44 light chain P44F_S131K; test: LCCA, SPR tag readout, L1:L2 DNA 1:3 normalized to 1:1; competitor m22
[11] = biological target: tissue factor (TF) antigen (UniProt P13726); test: SPR (ProteOn XPR36): His-tagged Fab captured on anti-penta-His surface, TF as analyte, 1:1 fit; value estimated (*) from the Fab differing only in the L chain tag
[12] = biological target: tissue factor (TF) antigen (UniProt P13726); test: SPR, Fab captured on anti-penta-His, TF as analyte, 1:1 fit; batch C
[13] = biological target: tissue factor (TF) antigen (UniProt P13726); test: SPR, Fab captured on anti-penta-His, TF as analyte; against wild-type D3H44 Fab; batch C
[14] = biological target: tissue factor (TF) antigen (UniProt P13726); test: SPR, Fab captured on anti-penta-His, TF as analyte, 1:1 fit; estimated value from Fab differing only in L chain tag

D3H44 Fab heavy chain Q39E_K145T_Q179E
H1L1:H1L2 normalized median ratio [1]: 10% | H1L1:H1L2 normalized median ratio [2]: 93% | H1L1:H1L2 normalized median ratio [3]: 90% | H1L1:H1L2 normalized median scalar value ln(r1/f1) [3]: 2.16 | H1L1:H1L2 normalized median ratio [4]: 7%

H1L1 Fab heterodimer of LCCA sets 9663 and 9666 (D3H44 Fab, H1 L143E_K145T_Q179E, L1 Q124R_T178R; L chain tag differs from the measured Fab)
Kd [5]: 0.27 nM | change in median KD compared to wild type, -(log(KD design)-log(KD wt)) [6]: -0.23

D3H44 Fab heavy chain L45P_K145T_H172R_Q179E
H1L1:H1L2 normalized median ratio [7]: 8% | H2L2:H2L1 normalized median ratio [7]: 8% | H1L1:H1L2 normalized median ratio [8]: 6% | H2L2:H2L1 normalized median ratio [8]: 6% | H1L1:H1L2 normalized median ratio [9]: 92% | H1L1:H1L2 normalized median scalar value ln(r1/f1) [9]: 2.42 | H2L2:H2L1 normalized median ratio [9]: 92% | H1L1:H1L2 normalized median ratio [10]: 94% | H1L1:H1L2 normalized median scalar value ln(r1/f1) [10]: 2.78 | H2L2:H2L1 normalized median ratio [10]: 94%

D3H44 H1L1 Fab heterodimer of LCCA set 9635 (H1 L143E_K145T_Q179D; L1 Q124R_T178R)
Change in median values of KD of h1|1 Fab heterodimer compared to wild type (-(log(KD design)-log(KD wt))) [11]: 0.04 log units | Kd [11]: 0.14 nM

D3H44 Fab heterodimer, H1 Q179R / L1 S131E (H1L1 Fab of LCCA Set # 9980)
Kd [12]: 0.16 nM | change in median KD compared to wild type, -(log(KD design)-log(KD wt)) [13]: 0

D3H44 Fab heterodimer, H1 S186R / L1 S131E (H1L1 Fab of LCCA Set # 9981 and 9985)
Kd [12]: 0.12 nM | change in median KD compared to wild type, -(log(KD design)-log(KD wt)) [13]: 0.1

H1L1 Fab heterodimer of LCCA set 9651 (D3H44 Fab, H1 L143E_K145T_Q179E, L1 Q124R_Q160K_T178R; L chain tag differs from the measured Fab)
Kd [5]: 0.15 nM | change in median KD compared to wild type, -(log(KD design)-log(KD wt)) [6]: 0.02

D3H44 Fab heterodimer, H1 S186K / L1 Q124E_T178E (H1L1 Fab of LCCA Set # 9850 and 9849)
Kd [12]: 0.15 nM | change in median KD compared to wild type, -(log(KD design)-log(KD wt)) [13]: 0.01

D3H44 H1L1 Fab heterodimer of LCCA set 9079 (H1 K145T_Q179E; L1 S131K)
Change in median values of KD of h1|1 Fab heterodimer compared to wild type (-(log(KD design)-log(KD wt))) [11]: -0.01 log units | Kd [11]: 0.16 nM

D3H44 Fab heavy chain Q39R_H172R_S186R
H2L2:H2L1 normalized median ratio [1]: 93% | H2L2:H2L1 normalized median ratio [2]: 6% | H2L2:H2L1 normalized median ratio [3]: 7% | H2L2:H2L1 normalized median ratio [4]: 94%

H1L1 Fab heterodimer of LCCA set 9623 (D3H44 Fab, H1 L143E_K145T_Q179D, L1 Q124R_Q160K_T178R; L chain tag differs from the measured Fab)
Kd [5]: 0.06 nM | change in median KD compared to wild type, -(log(KD design)-log(KD wt)) [6]: 0.39

D3H44 Fab heavy chain Q39E_K145T_H172R_Q179E
H1L1:H1L2 normalized median ratio [1]: 11% | H1L1:H1L2 normalized median ratio [2]: 93% | H1L1:H1L2 normalized median scalar value ln(r1/f1) [2]: 2.53 | H1L1:H1L2 normalized median ratio [3]: 89% | H1L1:H1L2 normalized median scalar value ln(r1/f1) [3]: 2.09 | H1L1:H1L2 normalized median ratio [4]: 7%

D3H44 Fab heterodimer, H1 S186R / L1 Q124E_Q160E_T178E (H1L1 Fab of LCCA Set # 9867 and 9868)
Kd [12]: 0.14 nM | change in median KD compared to wild type, -(log(KD design)-log(KD wt)) [13]: 0.06

D3H44 Fab heavy chain Q39R_S186R
H2L2:H2L1 normalized median ratio [1]: 96% | H2L2:H2L1 normalized median ratio [2]: 4% | H2L2:H2L1 normalized median ratio [3]: 4% | H2L2:H2L1 normalized median ratio [4]: 96%

D3H44 Fab heterodimer, H L124E_L143E_K145T / L Q124K_V133G_S176R_T178K
Change in KD with respect to wild type (-(log(KD design) - log(KD wt))) [14]: -0.12 | Kd [14]: 0.21 nM

D3H44 Fab heterodimer, H L124E_L143E_K145T / L Q124K_V133G_S176R_T178R
Change in KD with respect to wild type (-(log(KD design) - log(KD wt))) [14]: -0.07 | Kd [14]: 0.18 nM
